One molecule from PMC7202667, “UNBRANCHED3 Expression and Inflorescence Development is Mediated by UNBRANCHED2 and the Distal Enhancer, KRN4, in Maize” can be followed below.

Series [1] has as its target T1, OBF1, MBP fusion (Zea mays, UniProt P24068 1-151).
T1 sequence: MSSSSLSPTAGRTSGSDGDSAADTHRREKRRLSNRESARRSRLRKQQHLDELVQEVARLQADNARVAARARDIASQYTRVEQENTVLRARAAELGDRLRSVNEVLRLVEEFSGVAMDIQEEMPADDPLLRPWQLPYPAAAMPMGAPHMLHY
Put plainly: EMSA; poly(dI-dC), 5 mM MgCl2; EMSA: 10 mM Tris pH 7.5, 50 mM KCl, 1 mM DTT, 5 mM MgCl2, 2.5% glycerol, poly(dI-dC), 0.05% NP-40; 20-40 ng protein, probe 10 fM (so in the source); room temperature. The following applies: protein: recombinant; tags: N-MBP (pMAL-c2x); chain copies: 2; label: 5'-biotin; blunt. For orientation: Mobility shift assays separate free from complexed probe on a gel.

The target of series [2] is T2, OBF4, MBP fusion (Zea mays, UniProt B4FFB3 1-396).
T2 sequence: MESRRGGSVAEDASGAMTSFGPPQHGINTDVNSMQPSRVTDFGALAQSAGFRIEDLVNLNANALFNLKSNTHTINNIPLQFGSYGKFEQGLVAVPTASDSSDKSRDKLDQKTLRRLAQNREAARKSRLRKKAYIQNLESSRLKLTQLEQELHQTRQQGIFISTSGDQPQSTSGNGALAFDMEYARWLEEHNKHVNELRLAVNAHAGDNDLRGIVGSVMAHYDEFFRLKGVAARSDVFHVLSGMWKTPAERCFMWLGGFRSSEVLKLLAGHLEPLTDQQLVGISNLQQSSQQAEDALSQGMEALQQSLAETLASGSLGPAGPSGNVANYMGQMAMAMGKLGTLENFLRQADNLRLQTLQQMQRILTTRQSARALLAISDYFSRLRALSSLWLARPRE
The description is as above. The following applies: protein: recombinant; tags: N-MBP (pMAL-c2x); chain copies: 2; label: 5'-biotin; blunt.

B1: 3xE1 probe (3E1X) (dsDNA)
DNA 1: ACATGGCACGACACGTAGTGAACCACATGGCACGACACGTAGTGAACCACATGGCACGACACGTAGTGAACC
DNA 2: GGTTCACTACGTGTCGTGCCATGTGGTTCACTACGTGTCGTGCCATGTGGTTCACTACGTGTCGTGCCATGT
For the molecule B1, the binding result in series [1] and in series [2] was “binds” throughout.
